{"source": "patent US20240190962A1", "binders": {"B1": {"name": "Fab-Fc-IL-2 mutant-CD3 Ab (protein, part only; not given: constant regions and IL-2 junction, not shown: a dimerising Fc or GST)", "light": "EIVMTQSPGTLSLSPGESATLSCSASLSVSFMHWFQQKPGHAPRLLIYRTSNLASGVPDRFSGSGSGTDFTLTISRLEPEDFAVYYCQQRSSDPPTFGQGTRLEIKRTVAAPSVFIFPPSDEQLKSGTASVVCLLNNFYPREAKVQWKVDNALQSGNSQESVTEQDSKDSTYSLSSTLTLSKADYEKHKVYACEVTHQGLSSPVTKSFNRGEC", "heavy, part 1": "EVQLVESGGGLVQPGRSLRLSCTASGFTFSYFWMNWVRQAPGKGLEWVGEIRLRSDNYATHYAESVKGRFTISRDDSKSIAYLQMNSLKTEDTALYYCTRDWEFTYWGQGTTVTVSSAS", "heavy, part 2": "EVQLVESGGGLVQPGRSLRLSCTASGFTFSYFWMNWVRQAPGKGLEWVGEIRLRSDNYATHYAESVKGRFTISRDDSKSIAYLQMNSLKTEDTALYYCTRDWEFTYWGQGTTVTVSSASAPTSSSTKKTQLQLEHLLLDLQMILNGINNYKNPKLTDMLTFEFYMPKKATELKHLQCLERELKPLEEVLNLAQSKNFHLRPRDLISNINVIVLELKGSETTFMCEYADETATIVEFLNRWITFCQSIISTLT"}}, "target": "human IL-2 receptor (IL-2Rα, IL-2Rβ, IL-2Rγ) (human) (UniProt P01589)", "sequence (P01589 22-272, chain 1 of 3)": "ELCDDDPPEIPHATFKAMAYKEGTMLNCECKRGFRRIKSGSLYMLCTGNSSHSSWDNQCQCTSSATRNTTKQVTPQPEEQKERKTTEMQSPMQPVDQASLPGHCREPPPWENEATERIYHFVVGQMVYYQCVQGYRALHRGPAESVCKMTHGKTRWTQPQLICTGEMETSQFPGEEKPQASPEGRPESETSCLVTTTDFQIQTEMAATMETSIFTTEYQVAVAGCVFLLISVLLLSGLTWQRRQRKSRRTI", "sequence (P14784 27-551, chain 2 of 3, further chain)": "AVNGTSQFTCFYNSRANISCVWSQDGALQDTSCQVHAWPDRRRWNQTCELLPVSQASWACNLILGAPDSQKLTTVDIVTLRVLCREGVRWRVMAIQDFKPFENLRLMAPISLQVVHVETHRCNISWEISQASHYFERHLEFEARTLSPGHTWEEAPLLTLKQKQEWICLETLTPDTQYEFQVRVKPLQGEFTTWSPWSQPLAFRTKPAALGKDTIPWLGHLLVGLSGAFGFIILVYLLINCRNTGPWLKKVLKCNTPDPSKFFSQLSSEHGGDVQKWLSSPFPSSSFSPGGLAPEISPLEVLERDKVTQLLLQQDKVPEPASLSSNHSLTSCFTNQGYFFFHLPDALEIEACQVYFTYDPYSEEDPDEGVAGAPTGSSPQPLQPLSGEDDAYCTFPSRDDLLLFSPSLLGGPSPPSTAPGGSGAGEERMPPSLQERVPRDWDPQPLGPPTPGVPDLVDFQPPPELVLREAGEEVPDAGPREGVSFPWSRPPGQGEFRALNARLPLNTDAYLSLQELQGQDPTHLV", "sequence (P31785 23-369, chain 3 of 3, further chain)": "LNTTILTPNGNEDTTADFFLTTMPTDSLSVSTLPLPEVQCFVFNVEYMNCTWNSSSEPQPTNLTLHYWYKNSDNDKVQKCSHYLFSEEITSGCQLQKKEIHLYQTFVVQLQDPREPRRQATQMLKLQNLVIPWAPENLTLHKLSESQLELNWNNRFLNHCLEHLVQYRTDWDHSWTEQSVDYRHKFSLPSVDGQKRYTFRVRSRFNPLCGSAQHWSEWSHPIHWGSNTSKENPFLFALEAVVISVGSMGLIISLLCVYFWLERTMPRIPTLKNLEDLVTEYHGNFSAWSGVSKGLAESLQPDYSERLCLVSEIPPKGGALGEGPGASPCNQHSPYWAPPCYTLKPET", "assay": "cell-based or functional assay", "data": [{"binder": "B1", "values": [{"measurement": "Percent T-cell proliferation (PBMC proliferation assay)", "result": 52, "unit": "%"}]}]}
